Data as given in patent publication US20250129135A1, “Multi-Agonist and Use Thereof” (priority 2021, published 2025).
Starred links: 1 amine or outer side, 2 acyl side, 3 side chain; linkers in the order of their positions; H or OH if unused. Non-standard residues stand in square brackets, D forms with d. Residues, ends and D or L forms follow the SMILES beside them. Groups on a side chain read outwards from the residue. *: point of attachment. C20 diacid = O=C(O)CCCCCCCCCCCCCCCCCCC(=O)*; γGlu = O=C(O)[C@H](CCC(=O)[*:2])N[*:1]; αMeL = CC(C)C[C@](C)(N)C(=O)O; AEEA = NCCOCCOCC(=O)O; Aib = CC(C)(N)C(=O)O

Experiments:
[1] = system: 3T3-L1 adipocytes
Procedure: Mouse 3T3-L1 precursor adipocytes can be induced to differentiate into mature adipocytes. […] After the cells became full and contacted with each other, DMEM differentiation medium containing 20% FBS, 0.5 mM IBMX, 0.4 ug/mL dexamethasone, and 5 ug/mL insulin was used to induce differentiation of 3T3-L1 adipocyte. After 5 days of induction and cultivation, DMEM medium containing […], 4 ug/ml insulin, and 10 uM rosiglitazone was used to continue induction and cultivation for 3 days. Then, DMEM medium containing 10% FBS was used to continue cultivation for 2-3 days to induce mature 3T3-L1 adipocytes.
The cAMP level produced by the compound on 3T3-L1 adipocytes was determined in this experiment. The tested compound solution was diluted step by step according to a concentration gradient of 3 times, to obtain a total of 10 series of concentration solutions. The solutions were added to induced mature 3T3-L1 adipocytes and incubated at room temperature for 60 minutes. 10 μL detection reagent in the kit was added to each well after drug incubation, and incubated at room temperature for another 60 minutes. […] GraphPad Prism 5 plotting software was used to create compound concentration-effect curves and calculation was performed.

[2] = system: C57 BL/6J DIO mice; assay: In vivo pharmacodynamics in high-fat diet induced obesity (DIO) mice; parameters: species or system mouse; details: Table 9-1; 3 nmol/kg; Day 15; Mean±SEM
Excerpt: High-fat diet induced obesity (DIO) mice have characteristics such as obesity, elevated blood sugar, insulin resistance, and lipid abnormalities, all of which are very significant metabolic syndromes similar to a human body. The effects of the compounds of the present application on body weight, food intake, blood sugar, and lipids in C57 BL/6J DIO mice were studied.
Obesity was induced in mice by feeding with a high-fat diet (60 kcal % of calories from fat). […] After grouping, one animal was raised in each cage for one week, during which each of the animals was injected subcutaneously (S.C.) with a solvent (1×PBS, 5 ml/kg) to pre-adapt the experimental operation process.
After the preparation of animals, vehicle control or compounds were administered to groups of animals by subcutaneous injection, in which the compounds were dissolved in 1×PBS, the dosage was 5 ml/kg, and the administration operation was started at 9:00 am and conducted once every three days (Q3D) for 15 days. Throughout the entire experimental study, animal weight and food intake were measured daily before administration, and compared with initial weight and food intake of the same animal before administration to calculate a percentage change in animal weight (%) and cumulative food intake, so as to evaluate the impact of compounds on changes in body weight and food intake.
At the end point of the experiment (Day 15), the body weight of the mice was measured, and then fasting blood glucose was measured by taking blood from the tail tip of broken tail without anesthesia. After the blood collection, the animals were anesthetized with CO2 and euthanized. Then, blood was taken from the heart and plasma was separated by centrifugation. The plasma was used to measure total cholesterol (TC), low-density lipoprotein cholesterol (LDL-C), triglycerides (TG), and blood insulin content. The liver was separated for homogenization, and then centrifuged to obtain the supernatant for determining triglyceride content in the liver.
All results were expressed in Mean±SEM, and the results were analyzed by one-way ANOVA using GraphPad Prism 5 software, followed by Dunnett's post hoc test compared to the Vehicle control group. The difference at the p<0.05 level was considered statistically significant.

[3] = target: human GCG receptor (human, UniProt P47871 26-477); assay: cell-based or functional assay
human GCG receptor, sequence (P47871 26-477): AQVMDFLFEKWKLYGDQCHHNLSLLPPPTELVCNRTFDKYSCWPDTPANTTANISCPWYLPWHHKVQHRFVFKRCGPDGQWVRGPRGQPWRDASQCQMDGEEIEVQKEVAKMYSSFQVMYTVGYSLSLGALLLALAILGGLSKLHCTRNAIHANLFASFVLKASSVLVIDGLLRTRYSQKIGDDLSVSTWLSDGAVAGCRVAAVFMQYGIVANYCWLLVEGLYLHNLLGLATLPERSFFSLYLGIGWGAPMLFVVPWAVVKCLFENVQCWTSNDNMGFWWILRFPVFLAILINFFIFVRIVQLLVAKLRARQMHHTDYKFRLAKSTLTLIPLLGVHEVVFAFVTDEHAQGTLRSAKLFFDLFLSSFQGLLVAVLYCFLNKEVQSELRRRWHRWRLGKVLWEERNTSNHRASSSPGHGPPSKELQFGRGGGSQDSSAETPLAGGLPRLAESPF

[4] = target: T1, human GIP receptor (human, UniProt P48546 22-466); assay: cell-based or functional assay
T1 sequence (looked up): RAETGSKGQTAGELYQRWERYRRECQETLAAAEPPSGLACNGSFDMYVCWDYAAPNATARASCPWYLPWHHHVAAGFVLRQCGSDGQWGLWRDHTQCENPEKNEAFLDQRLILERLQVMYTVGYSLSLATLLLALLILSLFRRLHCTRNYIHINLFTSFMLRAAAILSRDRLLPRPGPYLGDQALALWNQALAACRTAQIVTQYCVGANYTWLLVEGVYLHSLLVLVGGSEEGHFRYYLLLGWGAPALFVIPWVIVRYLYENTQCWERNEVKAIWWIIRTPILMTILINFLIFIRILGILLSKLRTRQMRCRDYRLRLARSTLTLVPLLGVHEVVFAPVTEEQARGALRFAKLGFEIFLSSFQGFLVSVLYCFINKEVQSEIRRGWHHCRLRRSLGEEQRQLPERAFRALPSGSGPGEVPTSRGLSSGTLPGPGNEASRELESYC

[5] = target: human GLP-1 receptor (human, UniProt P43220 24-463); assay: cell-based or functional assay

CC[C@H](C)[C@H](NC(=O)[C@H](Cc1ccccc1)NC(=O)[C@H](C)NC(=O)C(C)(C)NC(=O)[C@H](CCC(N)=O)NC(=O)[C@H](C)NC(=O)[C@H](CCCCNC(=O)COCCOCCNC(=O)CC[C@H](NC(=O)CCCCCCCCCCCCCCCCCCC(=O)O)C(=O)O)NC(=O)[C@H](CCCCN)NC(=O)[C@H](CC(=O)O)NC(=O)[C@H](CC(C)C)NC(=O)[C@](C)(CC(C)C)NC(=O)[C@@H](NC(=O)[C@H](CO)NC(=O)[C@H](Cc1ccc(O)cc1)NC(=O)[C@H](CC(=O)O)NC(=O)[C@H](CO)NC(=O)[C@@H](NC(=O)[C@H](Cc1ccccc1)NC(=O)[C@@H](NC(=O)CNC(=O)[C@H](CCC(N)=O)NC(=O)C(C)(C)NC(=O)[C@@H](N)Cc1ccc(O)cc1)[C@@H](C)O)[C@@H](C)O)[C@@H](C)CC)C(=O)N[C@@H](CCC(=O)O)C(=O)N[C@@H](Cc1ccc(O)cc1)C(=O)N[C@@H](CC(C)C)C(=O)N[C@@H](CC(C)C)C(=O)N[C@@H](CCC(=O)O)C(=O)NC(C)(C)C(=O)NCC(=O)N1CCC[C@H]1C(=O)N[C@@H](CO)C(=O)N[C@@H](CO)C(=O)NCC(=O)N[C@@H](C)C(=O)N1CCC[C@H]1C(=O)N1CCC[C@H]1C(=O)N1CCC[C@H]1C(=O)N[C@@H](CO)C(N)=O [Compound 45] (H-Y[Aib]QGTFTSDYSI[αMeL]LDKK([AEEA-γGlu-C20 diacid])AQ[Aib]AFIEYLLE[Aib]GPSSGAPPPS-NH2)
EC50 [1]: 8.11 nM
Rel. A (Relative Activity) on 3T3-L1 adipocyte ([1]; relative to GIP): 46.89%

CC[C@H](C)[C@H](NC(=O)[C@H](Cc1ccccc1)NC(=O)[C@H](C)NC(=O)C(C)(C)NC(=O)[C@H](CCC(N)=O)NC(=O)[C@H](C)NC(=O)[C@H](CCCCNC(=O)COCCOCCNC(=O)COCCOCCNC(=O)CC[C@H](NC(=O)CCCCCCCCCCCCCCCCCCC(=O)O)C(=O)O)NC(=O)[C@H](CCCCN)NC(=O)[C@H](CC(=O)O)NC(=O)[C@H](CC(C)C)NC(=O)[C@](C)(CC(C)C)NC(=O)[C@@H](NC(=O)[C@H](CO)NC(=O)[C@H](Cc1ccc(O)cc1)NC(=O)[C@H](CC(=O)O)NC(=O)[C@H](CO)NC(=O)[C@@H](NC(=O)[C@](C)(Cc1ccccc1F)NC(=O)[C@@H](NC(=O)CNC(=O)[C@H](CCC(N)=O)NC(=O)C(C)(C)NC(=O)[C@@H](N)Cc1ccc(O)cc1)[C@@H](C)O)[C@@H](C)O)[C@@H](C)CC)C(=O)N[C@@H](CCC(=O)O)C(=O)N[C@@H](Cc1ccccc1)C(=O)N[C@@H](CC(C)C)C(=O)N[C@@H](CC(C)C)C(=O)N[C@@H](CCC(=O)O)C(=O)NCC(=O)NCC(=O)N1CCC[C@H]1C(=O)N[C@@H](CO)C(=O)N[C@@H](CO)C(=O)NC(C)(C)C(=O)N[C@@H](Cc1c[nH]cn1)C(=O)N1CCC[C@H]1C(=O)N1CCC[C@H]1C(=O)N1CCC[C@H]1C(=O)N[C@@H](CO)C(N)=O [Compound 24]
Liver TG [2]: 30.7 ± 1.31 mg

B1: Compound 14 (peptide)
peptide: YXQGTXTSDYSIXLDKKAQXAFIEFLLETGPSSGAPPPS
modifications: Aib at 2; αMeF at 6; αMeL at 13; Lys 17 side chain AEEAc-AEEAc-γGlu-CO(CH2)18COOH; Aib at 20; C-terminal amide (NH2)
cAMP Rel. A (%) against human GCG, human GCG R cells [3]: 50%
cAMP EC50, CHO cells stably overexpressing human GIP R [4]: 0.011 nM
cAMP Rel. A (%) against human GIP, human GIP R cells [4]: 1650%
cAMP EC50, HEK-293 cells stably overexpressing human GLP-1 R [5]: 0.01 nM
cAMP Rel. A (%) against human GLP-1 (7-37), human GLP-1 R cells [5]: 440%
